Results on three compounds are retold here after article PMC10552758, “Identification and characterization of a novel β-lactamase gene, blaAMZ–1, from Achromobacter mucicolens” (Frontiers in Microbiology, 2023).

One data set deals with T1, AMZ-1 (Achromobacter mucicolens, UniProt Z9OND0BR39).
T1 construct: ORF without signal peptide (cleavage 26/27) in pColdI, E. coli BL21(DE3); His-tag removed with enterokinase
The experiment in a line: nitrocefin hydrolysis, UV-VIS spectrophotometry. It is filed as biochemical.

For data set [1], the system named is CO[C@@]1(NC(=O)Cc2cccs2)C(=O)N2C(C(=O)O)=C(COC(N)=O)CS[C@@H]21. The experiment in a line: UV-VIS hydrolysis, initial rates, Michaelis-Menten fit. The format is biochemical, Achromobacter mucicolens. The conditions noted are these: 10 mM phosphate pH 7.0, 37°C. An excerpt:
(§1) UV-VIS hydrolysis, initial rates, Michaelis-Menten fit on AMZ-1

The test system of data set [2] is CC(=O)OCC1=C(C(=O)O)N2C(=O)[C@@H](NC(=O)Cc3cccs3)[C@H]2SC1. Described as above. The format is biochemical, Achromobacter mucicolens. The conditions noted are these: 10 mM phosphate pH 7.0, 37°C.
Description: as §1

Data set [3] concerns CC1(C)S[C@@H]2[C@H](NC(=O)Cc3ccccc3)C(=O)N2[C@H]1C(=O)O. Described as above. The format is biochemical, Achromobacter mucicolens. The conditions noted are these: 10 mM phosphate pH 7.0, 37°C.
Description: as §1

Data set [4] concerns CC1(C)S[C@@H]2[C@H](NC(=O)[C@H](N)c3ccc(O)cc3)C(=O)N2[C@H]1C(=O)O. The data set is described as above. It is filed as biochemical, Achromobacter mucicolens. The conditions noted are these: 10 mM phosphate pH 7.0, 37°C.
Description: as §1

Consider `NC(=O)[C@@H]1CC[C@@H]2CN1C(=O)N2OS(=O)(=O)O` [avibactam], for which, at AMZ-1, the IC50 (usually the concentration that inhibits the measured activity by half) was determined as 0.00082 µM.
As for AMZ-1 (Achromobacter mucicolens), the Km (usually the concentration of substrate that gives half-maximal velocity) in data set [1] turned out to be 18.16 ± 3.88 µM; in data set [2] it was 564.23 ± 56.35 µM; in data set [3] it was 108.84 ± 8.12 µM; in data set [4], 14.65 ± 1.274 µM. In addition, the kcat (as a rule, the number of substrate molecules converted per active site and unit of time at saturation) in data set [1] turned out to be 0.0805 ± 0.0137 s⁻¹; in data set [2], 5.88 ± 0.39 s⁻¹; in data set [3] it was 3.93 ± 0.13 s⁻¹; in data set [4], 0.0947 ± 0.005 s⁻¹. In addition, the kcat/Km (usually the second-order rate constant that governs catalysis at low substrate concentration) in data set [1] amounted to 4540 ± 660 M⁻¹ s⁻¹; in data set [2], 10400 ± 40 M⁻¹ s⁻¹; in data set [3] it was 36300 ± 150 M⁻¹ s⁻¹; in data set [4] it was 6780 ± 1650 M⁻¹ s⁻¹.
Turning to `C[C@]1(Cn2ccnn2)[C@H](C(=O)O)N2C(=O)C[C@H]2S1(=O)=O` [tazobactam], the IC50 at AMZ-1 was found to be 1090 µM.
